Literature values, collected in US20090074843A1, “Use of epi-hne 1-4” (priority 2004, published 2009).

How the values were obtained:
Kallikrein = Kallikrein (Homo sapiens, UniProt P03952); details: Human Serum Kallikrein vs Elastase
Thrombin = Thrombin (Homo sapiens, UniProt P00734); details: Human Serum Thrombin vs Elastase
[1] = system: Human Pancreatic Chymotrypsin; details: Human Pancreatic Chymotrypsin vs Elastase
Human Urine Urokinase = Human Urine Urokinase (Homo sapiens, UniProt P00749); details: Human Urine Urokinase vs Elastase
Human Plasma Factor Xa = Human Plasma Factor Xa (Homo sapiens, UniProt P00742); details: Human Plasma Factor Xa vs Elastase
Human Serum Plasmin = Human Serum Plasmin (Homo sapiens, UniProt P00747); details: Human Serum Plasmin vs Elastase
[2] = chloramineT, up to 50 mol-equivalents
[3] = biological target: T1, human neutrophil elastase (Homo sapiens, UniProt P08246); details: comparison values
T1 sequence (P08246 30-267): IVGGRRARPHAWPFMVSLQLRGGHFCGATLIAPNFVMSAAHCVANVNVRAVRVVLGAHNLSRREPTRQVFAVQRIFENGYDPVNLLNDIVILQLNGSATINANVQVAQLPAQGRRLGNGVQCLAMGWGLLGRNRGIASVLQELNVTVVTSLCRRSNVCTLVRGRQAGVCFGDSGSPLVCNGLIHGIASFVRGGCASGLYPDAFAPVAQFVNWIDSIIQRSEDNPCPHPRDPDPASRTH

Human Serum Plasmin, sequence (P00747 581-810 limits assumed): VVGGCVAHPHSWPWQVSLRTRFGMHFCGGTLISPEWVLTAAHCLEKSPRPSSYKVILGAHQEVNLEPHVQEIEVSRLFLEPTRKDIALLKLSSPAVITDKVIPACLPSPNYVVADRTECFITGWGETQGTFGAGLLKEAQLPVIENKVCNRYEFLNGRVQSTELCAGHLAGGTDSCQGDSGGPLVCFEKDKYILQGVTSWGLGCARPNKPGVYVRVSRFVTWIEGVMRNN
Human Serum Plasmin, sequence (P00747 98-580 partner limits assumed): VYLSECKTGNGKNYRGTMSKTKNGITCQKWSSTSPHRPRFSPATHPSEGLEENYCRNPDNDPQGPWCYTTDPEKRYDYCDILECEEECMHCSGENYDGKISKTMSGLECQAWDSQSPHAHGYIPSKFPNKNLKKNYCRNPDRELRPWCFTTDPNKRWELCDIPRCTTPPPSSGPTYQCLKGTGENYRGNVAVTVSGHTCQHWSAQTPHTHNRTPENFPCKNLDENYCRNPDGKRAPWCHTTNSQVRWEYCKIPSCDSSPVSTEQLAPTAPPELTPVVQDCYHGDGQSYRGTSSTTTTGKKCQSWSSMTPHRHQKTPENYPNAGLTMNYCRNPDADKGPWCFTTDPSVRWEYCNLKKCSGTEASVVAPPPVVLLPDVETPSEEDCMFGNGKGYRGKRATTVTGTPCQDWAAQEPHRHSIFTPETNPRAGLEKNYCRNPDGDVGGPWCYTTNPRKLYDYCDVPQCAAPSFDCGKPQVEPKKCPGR
Kallikrein, sequence (P03952 391-638 limits assumed): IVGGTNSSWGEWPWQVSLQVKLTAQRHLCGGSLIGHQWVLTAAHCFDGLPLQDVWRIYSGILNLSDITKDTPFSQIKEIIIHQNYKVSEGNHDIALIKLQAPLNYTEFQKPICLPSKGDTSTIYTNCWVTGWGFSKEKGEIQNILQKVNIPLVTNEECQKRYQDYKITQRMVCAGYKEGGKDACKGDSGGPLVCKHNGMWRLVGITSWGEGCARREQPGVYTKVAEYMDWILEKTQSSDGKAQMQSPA
Kallikrein, sequence (P03952 20-390 limits assumed): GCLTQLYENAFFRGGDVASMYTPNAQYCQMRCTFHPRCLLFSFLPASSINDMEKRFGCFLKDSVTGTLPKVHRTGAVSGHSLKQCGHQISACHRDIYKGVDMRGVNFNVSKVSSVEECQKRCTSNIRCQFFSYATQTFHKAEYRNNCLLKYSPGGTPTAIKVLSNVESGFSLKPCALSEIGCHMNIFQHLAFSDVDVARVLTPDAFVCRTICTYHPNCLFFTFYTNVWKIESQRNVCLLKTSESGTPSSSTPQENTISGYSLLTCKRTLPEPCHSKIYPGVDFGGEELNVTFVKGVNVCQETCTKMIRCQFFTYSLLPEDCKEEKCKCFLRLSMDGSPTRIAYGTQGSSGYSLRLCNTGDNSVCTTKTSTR
Human Plasma Factor Xa, sequence (P00742 235-488 limits assumed): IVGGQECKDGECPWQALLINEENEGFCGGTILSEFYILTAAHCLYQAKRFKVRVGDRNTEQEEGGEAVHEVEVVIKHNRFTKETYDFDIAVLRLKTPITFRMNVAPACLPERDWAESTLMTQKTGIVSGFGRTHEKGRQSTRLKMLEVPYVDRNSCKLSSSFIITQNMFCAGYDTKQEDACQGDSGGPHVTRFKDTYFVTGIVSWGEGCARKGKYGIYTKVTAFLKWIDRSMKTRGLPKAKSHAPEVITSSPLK
Human Plasma Factor Xa, sequence (P00742 41-179 partner limits assumed): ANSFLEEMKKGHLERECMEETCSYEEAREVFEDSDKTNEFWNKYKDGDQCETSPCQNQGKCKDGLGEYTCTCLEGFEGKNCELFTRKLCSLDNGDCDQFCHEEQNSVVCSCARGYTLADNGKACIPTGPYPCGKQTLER

EPI-HNE4: 56 amino acid protein (SEQ ID NO: 1) derived from second Kunitz type domain of human inter-alpha-inhibitor light chain (ITI-D2); elastase inhibitor (EACNLPIVRGPCIAFFPRWAFDAVKGKCVLFPYGGCQGNGNKFYSEKECREYCGVP; P. pastoris; EPI-HNE4 N-terminal modified to facilitate secretion)
selectivity in Ki values (Kallikrein): more than 10^6 | selectivity in Ki values (Thrombin): more than 10^6 | selectivity in Ki values [1]: more than 10^6 | selectivity in Ki values (Human Urine Urokinase): more than 10^6 | selectivity in Ki values (Human Plasma Factor Xa): more than 10^6 | selectivity in Ki values (Human Serum Plasmin): more than 10^6

AAT: naturally occurring elastase inhibitor, serum protease inhibitor [reference compound]
resistance to oxidation (retention of activity) [2]: destroy the activity

B1: SLPI: naturally occurring elastase inhibitor, serum protease inhibitor (protein, UniProt P03973 26-132, looked up)
Antileukoproteinase: SGKSFKAGVCPPKKSAQCLRYKKPECQSDWQCPGKKRCCPDTCGIKCLDPVDTPNPTRRKPGKCPVTYGQCLMLNPPNFCEMDGQCKRDLKCCMGMCGKSCVSPVKA
resistance to oxidation (retention of activity) [2]: destroy the activity | Kd [3]: 0.1 µM
